Test results as given in the Immune Epitope Database (IEDB).

Key:
HLA-A*02:01 [1] = test: IEDB peptide-MHC binding, purified MHC/competitive/radioactivity; ≥ and ≤ were set here for values at or beyond the usual limits of such assays
HLA-A*02:19 = test: IEDB peptide-MHC binding, purified MHC/direct/fluorescence; filed as Kd, often an IC50 or EC50 that approximates it; ≥ and ≤ were set here for values at or beyond the usual limits of such assays
HLA-A*69:01 = test: as above
HLA-A*02:01 [2] = test: as above
HLA-A*26:01 = test: as above
HLA-B*15:17 = test: as above; conditions: source organism: Salmonella enterica subsp. enterica serovar Berta
HLA-A*29:02 = test: as above; conditions: source organism: Salmonella enterica subsp. enterica serovar Berta
HLA-A*02:16 = test: as above
HLA-A*24:03 = test: as above
HLA-A*02:11 = test: as above
HLA-B*46:01 = test: as above
HLA-A*03:01 [3] = test: as above
HLA-B*18:01 = test: as above
HLA-B*15:01 = test: as above
HLA-A*02:03 = test: as above
HLA-A*23:01 = test: as above; conditions: source organism: Salmonella enterica subsp. enterica serovar Berta
HLA-B*51:01 = test: as above
HLA-A*02:12 = test: as above
HLA-B*57:01 = test: as above
HLA-A*68:02 = test: as above; conditions: source organism: Salmonella enterica subsp. enterica serovar Berta
HLA-B*27:03 = test: as above
HLA-B*08:01 = test: as above
HLA-B*08:02 = test: as above; conditions: source organism: Salmonella enterica subsp. enterica serovar Typhimurium str. LT2
HLA-A*11:01 = test: as above; conditions: source organism: Salmonella enterica subsp. enterica serovar Typhimurium
HLA-C*05:01 = test: as above
HLA-B*44:02 = test: as above
HLA-B*27:05 = test: as above
HLA-A*01:01 [4] = test: as above
HLA-A*31:01 = test: as above
HLA-B*07:02 = test: as above
HLA-A*24:02 = test: as above; conditions: source organism: Salmonella enterica subsp. enterica serovar Typhimurium
HLA-B*58:01 = test: as above
HLA-B*40:01 = test: as above
HLA-B*73:01 = test: as above
HLA-A*30:01 = test: as above
HLA-C*12:03 = test: as above; conditions: source organism: Toxoplasma gondii ME49
HLA-B*48:01 = test: as above; conditions: source organism: Brucella suis
HLA-C*03:03 = test: as above; conditions: source organism: Listeria monocytogenes EGD-e
HLA-C*08:02 = test: as above
HLA-A*03:01 [5] = test: IEDB peptide-MHC binding, purified MHC/competitive/fluorescence; filed as Kd, often an IC50 or EC50 that approximates it; ≥ and ≤ were set here for values at or beyond the usual limits of such assays; conditions: source organism: Yersinia pestis Antiqua
HLA-A*01:01 [6] = test: as above; conditions: source organism: Yersinia pestis Antiqua
HLA-B*35:01 = test: as above; conditions: source organism: Yersinia pestis Antiqua
HLA-B*39:01 = test: IEDB peptide-MHC binding, purified MHC/direct/fluorescence; filed as Kd, often an IC50 or EC50 that approximates it; ≥ and ≤ were set here for values at or beyond the usual limits of such assays; conditions: source organism: Vibrio parahaemolyticus AQ3810
[7] = source organism: Salmonella enterica subsp. enterica serovar Berta
[8] = source organism: Salmonella enterica subsp. enterica serovar Typhimurium str. LT2
[9] = source organism: Salmonella enterica subsp. enterica serovar Typhimurium
[10] = source organism: Salmonella enterica
[11] = source organism: Toxoplasma gondii
[12] = source organism: Vibrio parahaemolyticus AQ3810
[13] = source organism: Vibrio parahaemolyticus

TVLEYLVSFGV
IC50 (HLA-A*02:01 [1]; source organism: Hepatitis B virus): 0.294 µM

HQDDGQPRL
Kd (HLA-A*02:19; [7]): ≥ 20 µM | Kd (HLA-A*69:01; [7]): ≥ 20 µM | Kd (HLA-A*02:01 [2]; [7]): ≥ 20 µM | Kd (HLA-A*26:01; [7]): ≥ 20 µM | Kd (HLA-B*15:17): ≥ 20 µM | Kd (HLA-A*29:02): ≥ 20 µM | Kd (HLA-A*02:16; [7]): ≥ 20 µM | Kd (HLA-A*24:03; [7]): ≥ 20 µM | Kd (HLA-A*02:11; [7]): ≥ 20 µM | Kd (HLA-B*46:01; [7]): ≥ 20 µM | Kd (HLA-A*03:01 [3]; [7]): ≥ 20 µM | Kd (HLA-B*18:01; [7]): ≥ 20 µM | Kd (HLA-B*15:01; [7]): ≥ 20 µM | Kd (HLA-A*02:03; [7]): ≥ 20 µM | Kd (HLA-A*23:01): ≥ 20 µM | Kd (HLA-B*51:01; [7]): ≥ 20 µM | Kd (HLA-A*02:12; [7]): ≥ 20 µM | Kd (HLA-B*57:01; [7]): ≥ 20 µM | Kd (HLA-A*68:02): ≥ 20 µM | Kd (HLA-B*27:03; [7]): ≥ 20 µM

YSDIFNNVL
Kd (HLA-B*08:01; [8]): ≥ 20 µM | Kd (HLA-B*08:02): ≥ 20 µM | Kd (HLA-A*26:01; [8]): ≥ 20 µM | Kd (HLA-A*11:01): ≥ 20 µM | Kd (HLA-A*03:01 [3]; [9]): ≥ 20 µM | Kd (HLA-C*05:01; [8]): 0.005 µM | Kd (HLA-B*15:01; [9]): ≥ 20 µM | Kd (HLA-B*44:02; [9]): ≥ 20 µM | Kd (HLA-B*27:05; [9]): ≥ 20 µM | Kd (HLA-A*01:01 [4]; [9]): 0.075 µM | Kd (HLA-A*31:01; [9]): ≥ 20 µM | Kd (HLA-B*07:02; [9]): ≥ 20 µM | Kd (HLA-A*24:02): ≥ 20 µM | Kd (HLA-B*58:01; [9]): ≥ 20 µM | Kd (HLA-B*40:01; [9]): 0.396 µM

RTFSPTYGL
IC50 (HLA-A*02:01 [1]; source organism: Homo sapiens): 0.408 µM

SLDQSVVEL
Kd (HLA-C*05:01; source organism: Chlamydia trachomatis): 0.051 µM

RKAGVNQAK
Kd (HLA-A*69:01; [10]): ≥ 20 µM | Kd (HLA-B*08:01; [10]): ≥ 20 µM | Kd (HLA-A*02:01 [2]; [10]): ≥ 20 µM | Kd (HLA-A*26:01; [10]): ≥ 20 µM | Kd (HLA-A*03:01 [3]; [9]): ≥ 20 µM | Kd (HLA-B*15:01; [10]): ≥ 20 µM | Kd (HLA-B*44:02; [10]): ≥ 20 µM | Kd (HLA-B*73:01; [8]): ≥ 20 µM | Kd (HLA-B*27:05; [9]): 0.224 µM | Kd (HLA-A*01:01 [4]; [10]): ≥ 20 µM | Kd (HLA-A*30:01; [9]): 12.9 µM | Kd (HLA-A*31:01; [10]): ≥ 20 µM | Kd (HLA-B*07:02; [10]): ≥ 20 µM | Kd (HLA-B*58:01; [10]): ≥ 20 µM | Kd (HLA-B*40:01; [10]): ≥ 20 µM

RATSHVPEF
Kd (HLA-C*05:01; source organism: Toxoplasma gondii ME49): ≥ 20 µM | Kd (HLA-C*12:03): 0.148 µM | Kd (HLA-B*57:01; [11]): ≥ 20 µM | Kd (HLA-B*58:01; [11]): ≥ 20 µM

RRTKLPLTK
Kd (HLA-B*48:01): ≥ 20 µM | Kd (HLA-B*73:01; source organism: Brucella suis 1330): ≥ 20 µM | Kd (HLA-B*27:05; source organism: Brucella suis): 0.0792 µM

QYDVPMVSF
Kd (HLA-A*24:03; source organism: Mycobacterium tuberculosis): 0.0184 µM | Kd (HLA-C*05:01; source organism: Mycobacterium tuberculosis H37Rv): ≥ 20 µM

FLPDKAIDL
Kd (HLA-A*69:01; source organism: Bacillus anthracis): 17 µM | Kd (HLA-C*03:03): 0.02 µM | Kd (HLA-C*08:02; source organism: Listeria monocytogenes EGD-e): 0.047 µM

FVADSTPLY
Kd (HLA-C*08:02; source organism: Yersinia pestis Antiqua): ≥ 20 µM | Kd (HLA-A*03:01 [5]): ≥ 20 µM | Kd (HLA-A*01:01 [6]): 0.0018 µM | Kd (HLA-B*35:01): ≤ 0.0001 µM

EPFLVQFWI
Kd (HLA-A*02:19; [12]): ≥ 20 µM | Kd (HLA-A*02:01 [2]; [12]): ≥ 20 µM | Kd (HLA-A*26:01; [12]): ≥ 20 µM | Kd (HLA-A*02:16; [12]): ≥ 20 µM | Kd (HLA-A*24:03; [12]): ≥ 20 µM | Kd (HLA-A*02:11; [12]): ≥ 20 µM | Kd (HLA-B*46:01; [12]): ≥ 20 µM | Kd (HLA-A*03:01 [3]; [12]): ≥ 20 µM | Kd (HLA-B*18:01; [12]): ≥ 20 µM | Kd (HLA-B*39:01): ≥ 20 µM | Kd (HLA-B*15:01; [12]): ≥ 20 µM | Kd (HLA-A*02:03; [12]): ≥ 20 µM | Kd (HLA-B*51:01; [12]): 0.193 µM | Kd (HLA-A*02:12; [12]): ≥ 20 µM | Kd (HLA-B*57:01; [12]): ≥ 20 µM | Kd (HLA-B*27:03; [12]): ≥ 20 µM

GRNSRFPDK
Kd (HLA-A*69:01; [13]): ≥ 20 µM | Kd (HLA-B*08:01; [13]): ≥ 20 µM | Kd (HLA-A*02:01 [2]; [13]): ≥ 20 µM | Kd (HLA-A*26:01; [13]): ≥ 20 µM | Kd (HLA-A*03:01 [3]; [13]): ≥ 20 µM | Kd (HLA-B*15:01; [13]): ≥ 20 µM | Kd (HLA-B*44:02; [13]): ≥ 20 µM | Kd (HLA-B*73:01; [12]): ≥ 20 µM | Kd (HLA-B*27:05; [13]): 1.04 µM | Kd (HLA-A*01:01 [4]; [13]): ≥ 20 µM | Kd (HLA-A*30:01; [13]): ≥ 5 µM | Kd (HLA-A*31:01; [13]): ≥ 20 µM | Kd (HLA-B*07:02; [13]): ≥ 20 µM | Kd (HLA-B*58:01; [13]): ≥ 20 µM | Kd (HLA-B*40:01; [13]): ≥ 20 µM
